Assay results as given in patent publication US20230406885A1, “CYCLIC PEPTIDES FOR TRAPPING INTERLEUKIN-1 BETA” (MERCK SHARP & DOHME LLC, priority 2022, published 2023).
*1 amine or outer side, *2 acyl side, *3 side chain or, on linkers, in order; H or OH if unused. [ ]: non-standard residue; d: D form. 3AzaPhe4AcPip = (S)-3-(6-(4-acetylpiperazin-1-yl)pyridin-3-yl)-2-aminopropanoic acid, CC(=O)N1CCN(c2ccc(C[C@H](N[*:1])C(=O)[*:2])cn2)CC1; Trp(4-Cl)(βS-Me) = C[C@@H](c1c[nH]c2cccc(Cl)c12)[C@H](N)C(=O)O; Ala(piperidin-4-yl) = O=C([C@H](CC1CCN([*:3])CC1)N[*:1])[*:2]; Pro(trans-4-NH2) = O=C([C@@H]1C[C@@H](N[*:3])CN1[*:1])[*:2]; Bip(4'-COOH) = N[C@@H](Cc1ccc(-c2ccc(C(=O)O)cc2)cc1)C(=O)O; 1Nal(3S-Me) = C[C@@H](c1cccc2ccccc12)[C@H](N)C(=O)O; Phe(4-COOH) = N[C@@H](Cc1ccc(C(=O)O)cc1)C(=O)O; h3Pal(5-CN) = N#Cc1cncc(CC[C@H](N)C(=O)O)c1; 1Nal = N[C@@H](Cc1cccc2ccccc12)C(=O)O; hTyr = N[C@@H](CCc1ccc(O)cc1)C(=O)O; 3Pal = N[C@@H](Cc1cccnc1)C(=O)O; 4Pal = N[C@@H](Cc1ccncc1)C(=O)O; dDab = NCC[C@@H](N)C(=O)O; Orn = NCCC[C@H](N)C(=O)O; dNMeA = CN[C@H](C)C(=O)O; Dap = NC[C@H](N)C(=O)O; Aib = CC(C)(N)C(=O)O

B1: SEQ ID NO: 46 (peptide)
peptide: cyclo([Bip(4'-COOH)]W[Phe(4-COOH)]G[Pro(trans-4-NH2)][Trp(4-Cl)(βS-Me)]D[dNMeA]G[Bip(4'-COOH)]KS[dDab][hTyr])
SMILES: C[C@@H]1C(=O)NCC(=O)N[C@@H](Cc2ccc(-c3ccc(C(=O)O)cc3)cc2)C(=O)N[C@@H](CCCCN)C(=O)N[C@@H](CO)C(=O)N[C@H](CCN)C(=O)N[C@@H](CCc2ccc(O)cc2)C(=O)N[C@@H](Cc2ccc(-c3ccc(C(=O)O)cc3)cc2)C(=O)N[C@@H](Cc2c[nH]c3ccccc23)C(=O)N[C@@H](Cc2ccc(C(=O)O)cc2)C(=O)NCC(=O)N2C[C@H](N)C[C@H]2C(=O)N[C@@H]([C@@H](C)c2c[nH]c3cccc(Cl)c23)C(=O)N[C@@H](CC(=O)O)C(=O)N1C
B2: SEQ ID NO: 37 (peptide)
peptide: cyclo([Bip(4'-COOH)]W[Phe(4-COOH)]G[Pro(trans-4-NH2)][Trp(4-Cl)(βS-Me)]D[dNMeA]G[Bip(4'-COOH)][1Nal][Orn][Aib]G)
SMILES: C[C@@H]1C(=O)NCC(=O)N[C@@H](Cc2ccc(-c3ccc(C(=O)O)cc3)cc2)C(=O)N[C@@H](Cc2cccc3ccccc23)C(=O)N[C@@H](CCCN)C(=O)NC(C)(C)C(=O)NCC(=O)N[C@@H](Cc2ccc(-c3ccc(C(=O)O)cc3)cc2)C(=O)N[C@@H](Cc2c[nH]c3ccccc23)C(=O)N[C@@H](Cc2ccc(C(=O)O)cc2)C(=O)NCC(=O)N2C[C@H](N)C[C@H]2C(=O)N[C@@H]([C@@H](C)c2c[nH]c3cccc(Cl)c23)C(=O)N[C@@H](CC(=O)O)C(=O)N1C
B3: SEQ ID NO: 40 (peptide)
peptide: cyclo([Bip(4'-COOH)]W[Phe(4-COOH)]G[Pro(trans-4-NH2)][Trp(4-Cl)(βS-Me)]D[dNMeA]G[Bip(4'-COOH)][Ala(piperidin-4-yl)]S[dA][hTyr])
SMILES: C[C@@H]1C(=O)NCC(=O)N[C@@H](Cc2ccc(-c3ccc(C(=O)O)cc3)cc2)C(=O)N[C@@H](CC2CCNCC2)C(=O)N[C@@H](CO)C(=O)N[C@H](C)C(=O)N[C@@H](CCc2ccc(O)cc2)C(=O)N[C@@H](Cc2ccc(-c3ccc(C(=O)O)cc3)cc2)C(=O)N[C@@H](Cc2c[nH]c3ccccc23)C(=O)N[C@@H](Cc2ccc(C(=O)O)cc2)C(=O)NCC(=O)N2C[C@H](N)C[C@H]2C(=O)N[C@@H]([C@@H](C)c2c[nH]c3cccc(Cl)c23)C(=O)N[C@@H](CC(=O)O)C(=O)N1C
B4: SEQ ID NO: 4 (peptide)
peptide: cyclo([3AzaPhe4AcPip]W[Phe(4-COOH)]G[Pro(trans-4-NH2)][1Nal(3S-Me)]D[dNMeA]G[Bip(4'-COOH)]W[Dap][dA][h3Pal(5-CN)])
SMILES: CC(=O)N1CCN(c2ccc(C[C@@H]3NC(=O)[C@H](CCc4cncc(C#N)c4)NC(=O)[C@@H](C)NC(=O)[C@H](CN)NC(=O)[C@H](Cc4c[nH]c5ccccc45)NC(=O)[C@H](Cc4ccc(-c5ccc(C(=O)O)cc5)cc4)NC(=O)CNC(=O)[C@@H](C)N(C)C(=O)[C@H](CC(=O)O)NC(=O)[C@H]([C@@H](C)c4cccc5ccccc45)NC(=O)[C@@H]4C[C@@H](N)CN4C(=O)CNC(=O)[C@H](Cc4ccc(C(=O)O)cc4)NC(=O)[C@H](Cc4c[nH]c5ccccc45)NC3=O)cn2)CC1
B5: SEQ ID NO: 44 (peptide)
peptide: cyclo([Bip(4'-COOH)]W[Phe(4-COOH)]G[Pro(trans-4-NH2)][Trp(4-Cl)(βS-Me)]D[dNMeA]G[Bip(4'-COOH)]KL[dS][hTyr])
SMILES: CC(C)C[C@@H]1NC(=O)[C@H](CCCCN)NC(=O)[C@H](Cc2ccc(-c3ccc(C(=O)O)cc3)cc2)NC(=O)CNC(=O)[C@@H](C)N(C)C(=O)[C@H](CC(=O)O)NC(=O)[C@H]([C@@H](C)c2c[nH]c3cccc(Cl)c23)NC(=O)[C@@H]2C[C@@H](N)CN2C(=O)CNC(=O)[C@H](Cc2ccc(C(=O)O)cc2)NC(=O)[C@H](Cc2c[nH]c3ccccc23)NC(=O)[C@H](Cc2ccc(-c3ccc(C(=O)O)cc3)cc2)NC(=O)[C@H](CCc2ccc(O)cc2)NC(=O)[C@@H](CO)NC1=O
B6: SEQ ID NO: 39 (peptide)
peptide: cyclo([Bip(4'-COOH)]W[Phe(4-COOH)]G[Pro(trans-4-NH2)][Trp(4-Cl)(βS-Me)]D[dNMeA]G[Bip(4'-COOH)][4Pal]S[dA][hTyr])
SMILES: C[C@@H]1C(=O)NCC(=O)N[C@@H](Cc2ccc(-c3ccc(C(=O)O)cc3)cc2)C(=O)N[C@@H](Cc2ccncc2)C(=O)N[C@@H](CO)C(=O)N[C@H](C)C(=O)N[C@@H](CCc2ccc(O)cc2)C(=O)N[C@@H](Cc2ccc(-c3ccc(C(=O)O)cc3)cc2)C(=O)N[C@@H](Cc2c[nH]c3ccccc23)C(=O)N[C@@H](Cc2ccc(C(=O)O)cc2)C(=O)NCC(=O)N2C[C@H](N)C[C@H]2C(=O)N[C@@H]([C@@H](C)c2c[nH]c3cccc(Cl)c23)C(=O)N[C@@H](CC(=O)O)C(=O)N1C
B7: SEQ ID NO: 45 (peptide)
peptide: cyclo([Bip(4'-COOH)]W[Phe(4-COOH)]G[Pro(trans-4-NH2)][Trp(4-Cl)(βS-Me)]D[dNMeA]G[Bip(4'-COOH)]KS[dA][hTyr])
SMILES: C[C@@H]1C(=O)NCC(=O)N[C@@H](Cc2ccc(-c3ccc(C(=O)O)cc3)cc2)C(=O)N[C@@H](CCCCN)C(=O)N[C@@H](CO)C(=O)N[C@H](C)C(=O)N[C@@H](CCc2ccc(O)cc2)C(=O)N[C@@H](Cc2ccc(-c3ccc(C(=O)O)cc3)cc2)C(=O)N[C@@H](Cc2c[nH]c3ccccc23)C(=O)N[C@@H](Cc2ccc(C(=O)O)cc2)C(=O)NCC(=O)N2C[C@H](N)C[C@H]2C(=O)N[C@@H]([C@@H](C)c2c[nH]c3cccc(Cl)c23)C(=O)N[C@@H](CC(=O)O)C(=O)N1C
B8: SEQ ID NO: 43 (peptide)
peptide: cyclo([Bip(4'-COOH)]W[Phe(4-COOH)]G[Pro(trans-4-NH2)][Trp(4-Cl)(βS-Me)]D[dNMeA]G[Bip(4'-COOH)]KL[dDab][hTyr])
SMILES: CC(C)C[C@@H]1NC(=O)[C@H](CCCCN)NC(=O)[C@H](Cc2ccc(-c3ccc(C(=O)O)cc3)cc2)NC(=O)CNC(=O)[C@@H](C)N(C)C(=O)[C@H](CC(=O)O)NC(=O)[C@H]([C@@H](C)c2c[nH]c3cccc(Cl)c23)NC(=O)[C@@H]2C[C@@H](N)CN2C(=O)CNC(=O)[C@H](Cc2ccc(C(=O)O)cc2)NC(=O)[C@H](Cc2c[nH]c3ccccc23)NC(=O)[C@H](Cc2ccc(-c3ccc(C(=O)O)cc3)cc2)NC(=O)[C@H](CCc2ccc(O)cc2)NC(=O)[C@@H](CCN)NC1=O
B9: SEQ ID NO: 42 (peptide)
peptide: cyclo([Bip(4'-COOH)]W[Phe(4-COOH)]G[Pro(trans-4-NH2)][Trp(4-Cl)(βS-Me)]D[dNMeA]G[Bip(4'-COOH)]KL[dA][hTyr])
SMILES: CC(C)C[C@@H]1NC(=O)[C@H](CCCCN)NC(=O)[C@H](Cc2ccc(-c3ccc(C(=O)O)cc3)cc2)NC(=O)CNC(=O)[C@@H](C)N(C)C(=O)[C@H](CC(=O)O)NC(=O)[C@H]([C@@H](C)c2c[nH]c3cccc(Cl)c23)NC(=O)[C@@H]2C[C@@H](N)CN2C(=O)CNC(=O)[C@H](Cc2ccc(C(=O)O)cc2)NC(=O)[C@H](Cc2c[nH]c3ccccc23)NC(=O)[C@H](Cc2ccc(-c3ccc(C(=O)O)cc3)cc2)NC(=O)[C@H](CCc2ccc(O)cc2)NC(=O)[C@@H](C)NC1=O
B10: SEQ ID NO: 47 (peptide)
peptide: cyclo([Bip(4'-COOH)]W[Phe(4-COOH)]G[Pro(trans-4-NH2)][Trp(4-Cl)(βS-Me)]D[dNMeA]G[Bip(4'-COOH)]KS[dS][hTyr])
SMILES: C[C@@H]1C(=O)NCC(=O)N[C@@H](Cc2ccc(-c3ccc(C(=O)O)cc3)cc2)C(=O)N[C@@H](CCCCN)C(=O)N[C@@H](CO)C(=O)N[C@H](CO)C(=O)N[C@@H](CCc2ccc(O)cc2)C(=O)N[C@@H](Cc2ccc(-c3ccc(C(=O)O)cc3)cc2)C(=O)N[C@@H](Cc2c[nH]c3ccccc23)C(=O)N[C@@H](Cc2ccc(C(=O)O)cc2)C(=O)NCC(=O)N2C[C@H](N)C[C@H]2C(=O)N[C@@H]([C@@H](C)c2c[nH]c3cccc(Cl)c23)C(=O)N[C@@H](CC(=O)O)C(=O)N1C
B11: SEQ ID NO: 41 (peptide)
peptide: cyclo([Bip(4'-COOH)]W[Phe(4-COOH)]G[Pro(trans-4-NH2)][Trp(4-Cl)(βS-Me)]D[dNMeA]G[Bip(4'-COOH)][Dap]S[dA][hTyr])
SMILES: C[C@@H]1C(=O)NCC(=O)N[C@@H](Cc2ccc(-c3ccc(C(=O)O)cc3)cc2)C(=O)N[C@@H](CN)C(=O)N[C@@H](CO)C(=O)N[C@H](C)C(=O)N[C@@H](CCc2ccc(O)cc2)C(=O)N[C@@H](Cc2ccc(-c3ccc(C(=O)O)cc3)cc2)C(=O)N[C@@H](Cc2c[nH]c3ccccc23)C(=O)N[C@@H](Cc2ccc(C(=O)O)cc2)C(=O)NCC(=O)N2C[C@H](N)C[C@H]2C(=O)N[C@@H]([C@@H](C)c2c[nH]c3cccc(Cl)c23)C(=O)N[C@@H](CC(=O)O)C(=O)N1C
B12: SEQ ID NO: 38 (peptide)
peptide: cyclo([Bip(4'-COOH)]W[Phe(4-COOH)]G[Pro(trans-4-NH2)][Trp(4-Cl)(βS-Me)]D[dNMeA]G[Bip(4'-COOH)][3Pal]S[dA][hTyr])
SMILES: C[C@@H]1C(=O)NCC(=O)N[C@@H](Cc2ccc(-c3ccc(C(=O)O)cc3)cc2)C(=O)N[C@@H](Cc2cccnc2)C(=O)N[C@@H](CO)C(=O)N[C@H](C)C(=O)N[C@@H](CCc2ccc(O)cc2)C(=O)N[C@@H](Cc2ccc(-c3ccc(C(=O)O)cc3)cc2)C(=O)N[C@@H](Cc2c[nH]c3ccccc23)C(=O)N[C@@H](Cc2ccc(C(=O)O)cc2)C(=O)NCC(=O)N2C[C@H](N)C[C@H]2C(=O)N[C@@H]([C@@H](C)c2c[nH]c3cccc(Cl)c23)C(=O)N[C@@H](CC(=O)O)C(=O)N1C

Molecular target: Recombinant human IL-1β (BioLegend 579404) (human, UniProt P01584 117-269)
Test: cell-based or functional assay

With B1 as the binder, how does the “MRC5 IC50” value read?
Its value is 0.134 nM.

For B2, which “MRC5 IC50” value is on record?
Its value is 0.103 nM.

With B3 as the binder, how does the “MRC5 IC50” value read?
Its value is 0.508 nM.

How did the “MRC5 IC50” value turn out when B4 was run?
The value was 0.0438 nM.

With B5 as the binder, how does the “MRC5 IC50” value read?
The value was 0.132 nM.

B6 was tested. Which “MRC5 IC50” value did it give?
Its value is 0.232 nM.

For B7, which “MRC5 IC50” value is on record?
The value was 0.174 nM.

With B8 as the binder, how does the “MRC5 IC50” value read?
The value was 0.244 nM.

For B9, which “MRC5 IC50” value is on record?
Its value is 0.627 nM.

How did the “MRC5 IC50” value turn out when B10 was run?
The value was 0.123 nM.

Which “MRC5 IC50” value does the source give for B11 here?
Its value is 0.469 nM.

B12 was tested. Which “MRC5 IC50” value did it give?
Its value is 0.217 nM.
